Data on seven molecules can be found in patent US20260193376A1 (Novo Nordisk, published 2026).

The labels stand for the following.
B1: mAb01-9994 (antibody, V domains shown)
VH: EVQLVESGGGLVQPGRSLRLSCAASGFTFHDYAMHWVRQVPGKGLEWVSGISWKGDIGGYVDSVKGRFTISRDNEKNSLYLQMNSLRAEDTALYYCVKSYGSGSFYNAFDSWGQGTLVTVSS
VL: DIQMTQSPSTLSASVGDRVTITCRASQSISSWLAWYQQKPGKAPKFLIYKASRLDRGTPSRFSGSGSGTEFSLTISSLQPDDFATYYCLEYSSYIRTFGQGTKVEIK
notes: Bivalent IgG
B2: mAb01-9978 (antibody, V domains shown)
VH: B1 VH
VL: B1 VL with F46L, D55E
notes: Bivalent IgG
B3: mAb01-9933 (antibody, V domains shown)
VH: B1 VH with R19K, H30D, E75A, M83L, V97A
VL: B1 VL with V15A, R18E, F46L, R53K, T58V, S77D
notes: Bivalent IgG
B4: mAb01-9985 (antibody, V domains shown)
VH: B1 VH with K54R, D62K, E75A
VL: B1 VL with R53K, D55E
notes: Bivalent IgG
B5: 224F3 (mAb01-1582) (antibody, V domains shown)
VH: QVQMQQSGAELVKPGASVKLSCKASGYTFTSQDINWVRQRPEQGLEWIGWIFPGDGSTKYNEKLKGKATLTTDKSSSTAFMQLSRLTSEDSAVYFCARSAYYRYDGSYYYAMDYWGQGTSVTVSS
VL: QIVLTQSPAIMSASLGEEITLTCSASSSVSYMLWYQQKSGTSPKLLIYTTSNLASGVPSRFSGTGSGTFYSLTISSVEAEDAADYYCHQWSSYPRTFGGGTKLEIKR
B6: mAb01-8913 (antibody, V domains shown)
VH: EVQLVQSGAEVKKPGESLRISCKGSGYSFSTSWIVWVRQMPGKGLEWMGMIDPSDSFTSYSPSFQGHVTISADKSISTAYLQWSSLKASDTAMYYCARLHYYNSEEFDVWGQGTLVTVSS
VL: EIVLTQSPGTLSLSAGERATLSCRASQSVSSSYLAWYQQKPGQAPRLLIYGASSRARGIPDRFSGSGSGTDFTLTISRLEPEDFAVYYCQQFGSSRLFTFGQGTKLEIK
notes: Bivalent IgG
B7: mAb01-9772 (antibody, V domains shown)
VH: B6 VH with V35S, F57Y, L115M
VL: B6 VL with A15P, A52Q, A56T, F92Y, S94D, R96Q
notes: Bivalent IgG

Residue numbers refer to the chain shown, from its start.

T3 sequence (P00740 47-461 T194A limits assumed): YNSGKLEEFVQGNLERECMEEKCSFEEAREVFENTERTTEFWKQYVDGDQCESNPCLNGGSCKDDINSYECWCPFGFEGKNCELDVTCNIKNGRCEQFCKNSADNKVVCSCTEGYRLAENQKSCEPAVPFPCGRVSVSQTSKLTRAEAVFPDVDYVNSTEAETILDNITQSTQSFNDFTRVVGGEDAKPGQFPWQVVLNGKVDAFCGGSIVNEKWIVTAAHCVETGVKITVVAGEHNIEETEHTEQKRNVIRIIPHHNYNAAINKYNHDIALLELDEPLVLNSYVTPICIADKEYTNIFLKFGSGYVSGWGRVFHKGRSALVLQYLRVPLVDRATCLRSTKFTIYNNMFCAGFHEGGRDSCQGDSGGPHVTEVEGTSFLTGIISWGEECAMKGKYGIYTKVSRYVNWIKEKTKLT
T4 sequence (P00742 41-179, chain 1 of 2): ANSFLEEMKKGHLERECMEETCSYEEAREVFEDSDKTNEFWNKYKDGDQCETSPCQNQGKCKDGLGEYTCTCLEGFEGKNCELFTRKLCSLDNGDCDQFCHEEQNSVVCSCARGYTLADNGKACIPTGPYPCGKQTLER
T4 sequence (P00742 183-488, chain 2 of 2): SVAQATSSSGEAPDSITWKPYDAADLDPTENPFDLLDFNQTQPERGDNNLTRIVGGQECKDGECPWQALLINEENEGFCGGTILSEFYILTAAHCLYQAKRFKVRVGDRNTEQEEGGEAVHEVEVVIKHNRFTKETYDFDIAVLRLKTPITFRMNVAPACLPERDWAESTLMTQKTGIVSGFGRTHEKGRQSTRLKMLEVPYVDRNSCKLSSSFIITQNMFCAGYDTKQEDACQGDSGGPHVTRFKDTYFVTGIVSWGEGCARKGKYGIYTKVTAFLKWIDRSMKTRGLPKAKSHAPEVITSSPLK

The target of the first assay is T1, randomly biotinylated human FIXa (human, UniProt P00740 47-191; P00740 227-461, randomly biotinylated (NHS-d-biotin)). Nature of the assay: BLI (Octet) in-tandem binning on biotinylated FIXa, 330 nM each; competitor (1st antibody): mAb01-2434. On the procedure: (§1) Binning experiments were performed using Octet fortebio systems (HTX, Red384), based on the principle of Bio-Layer Interferometry, and equipped with streptavidin sensors (Pall Life Sciences, Menlo Park, CA), and using 8-channel mode. The binning assays were performed using a modified in-tandem setup. Briefly, (1) 370 nM randomly biotinylated human FIXa (biotinylated using NHS-d-biotin from Sigma H1759 and human FIXa obtained from Haematologic Technologies, Essex Junction, VT) was captured by streptavidin tips (dip and read biosensors Part NO:18-5019, Pall Life Sciences, Menlo Park, CA) for 5 minutes, (2) 330 nM of a first bivalent anti-FIXa antibody was then offered to the streptavidin tips, and incubated for 10 minutes until the biotinylated FIXa were fully saturated and (3) the tips were then offered to an equimolar solution of 330 nM of the first antibody and 330 nM of a second bivalent anti-FIXa antibody for 5 minutes. […] Unspecific binding were evaluated by including an unrelated human IgG4 bivalent antibody as first and second antibody control.
T1 sequence (P00740 47-191, chain 1 of 2): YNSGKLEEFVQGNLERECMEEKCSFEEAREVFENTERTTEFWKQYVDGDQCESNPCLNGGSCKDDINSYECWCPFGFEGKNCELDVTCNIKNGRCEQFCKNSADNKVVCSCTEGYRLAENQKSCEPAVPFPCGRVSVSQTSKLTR
T1 sequence (P00740 227-461, chain 2 of 2): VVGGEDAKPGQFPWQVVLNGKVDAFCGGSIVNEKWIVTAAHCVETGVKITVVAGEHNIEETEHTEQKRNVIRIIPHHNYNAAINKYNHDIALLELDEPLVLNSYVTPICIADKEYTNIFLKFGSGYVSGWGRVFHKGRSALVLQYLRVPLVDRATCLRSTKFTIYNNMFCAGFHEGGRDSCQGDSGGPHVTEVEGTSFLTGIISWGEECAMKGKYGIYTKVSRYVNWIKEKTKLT
B1: the interferometry response value is 0.56.

B2 returned an interferometry response value of 0.34.

Turning to B3, the interferometry response value was 0.46.

B4 registered an interferometry response value of 0.6.

As for B5, the interferometry response value amounted to 1.69.

The next assay deals with T2, human plasma-derived Factor IXa (human, UniProt P00740 47-191; P00740 227-461).
T2 construct: also called FIXa; hFIXa
T2 sequence (P00740 47-191, chain 1 of 2): as the sequence (P00740 47-191, chain 1 of 2) above
T2 sequence (P00740 227-461, chain 2 of 2): as the sequence (P00740 227-461, chain 2 of 2) above
Kind of assay: ITC, 37 °C, pH 7.4, antibody injected into FIXa. On the procedure: (§2) Binding affinities for anti-FIX(a) and anti-FX(a) antibodies were measured by isothermal titration calorimetry […] by using a PEAQ-ITC calorimeter (Malvern, UK). The experiments were conducted at 37° C. and pH 7.4 using 25 mM Tris, 150 mM NaCl, 5 mM CaCl₂ (Tris-buffer). The sample cell (200 μl) contained either FIX, FIXa, or FX (macromolecule) and anti-FIX(a) and anti-FX(a) antibodies (ligand) were injected via a syringe (40 μl). All proteins were extensively dialyzed in Tris-buffer prior to measurements to secure matched buffer conditions. A thermal equilibration step was followed by a 60 s delay and subsequently an initial 0.2 μl injection of antibody, followed by 12-16 injections of 1.5-3 μl of antibody at an interval of 120 s. The stirring speed was maintained at 750 rpm, and the reference power is kept constant at 5-10 μcal/s. The heat associated with each injection of antibody is integrated and plotted against the molar ratio of ligand to macromolecule. The resulting isotherm is fitted to a one-site binding model to obtain the affinity (KD), stoichiometry (n), and enthalpy of interaction (ΔH) using the software provided by the manufacturer. Experiments were performed in at least duplicates.
As usually defined, the Kd is the constant that tells how readily two partners part at equilibrium. Lower therefore signals a tighter complex. For B1, the Kd stood at 1800 nM.

In turn, B2 yielded a Kd of 3570 nM.

As for B3, binding was put at a Kd of 1300 nM.

For the molecule B4, binding was characterised by a dissociation constant (Kd) of 1260 nM.

A further assay has as its target T3, human coagulation Factor IX (human, UniProt P00740 47-461).
T3 construct: also called FIX
Kind of assay: ITC, 37 °C, pH 7.4, antibody injected into FIX. The method, then:
as §2
The molecule B1 showed a Kd of 2480 nM.

As to B2, the Kd was found to be 5600 nM.

B3 registered a dissociation constant (Kd) of 2390 nM.

In turn, B4 had a Kd of 1920 nM. This Kd and that of the molecule before are within 1.5-fold of each other.

A further assay addresses T4, human coagulation Factor X (human, UniProt P00742 41-179; P00742 183-488).
T4 construct: also called FX
Kind of assay: ITC, 37 °C, pH 7.4, antibody injected into FX. The method, then: as §2
In general terms: ITC needs no label: the signal is the heat of the interaction.
B6 showed a Kd of 350 nM.

The molecule B7 registered a Kd of 1370 nM.

In a further assay the target is T1, randomly biotinylated human FIXa. Nature of the assay: BLI (Octet) in-tandem binning on biotinylated FIXa, 330 nM each; competitor (1st antibody): 224F3. On the procedure: as §1
(Biolayer interferometry detects binding as a change in optical thickness at a sensor tip.)
Turning to B1, the interferometry response value is 0.4.

For B2, the interferometry response value came out at 0.24.

In turn, B3 gave an interferometry response value of 0.34.

As for B4, the interferometry response value came to 0.44.

In turn, B5 came in with an interferometry response value of 0.11.

For the next assay the target is unchanged. Nature of the assay: BLI (Octet) in-tandem binning on biotinylated FIXa, 330 nM each; competitor (1st antibody): mAb01-1767. On the procedure:
as §1
For the molecule B1, the interferometry response value turned out to be 0.01.

B2 displayed an interferometry response value of 0.01.

Take B3: the interferometry response value stood at 0.02.

As to B4, the interferometry response value came out at 0.02.

Molecule B5 came in with an interferometry response value of 1.6.

Another assay has the same target. Kind of assay: BLI (Octet) in-tandem binning on biotinylated FIXa, 330 nM each; competitor (1st antibody): hIgG4 (control). On the procedure:
as §1
B1 displayed an interferometry response value of 0.75.

Turning to B2, the interferometry response value came to 0.4.

The molecule B3 gave an interferometry response value of 0.59.

B4: the interferometry response value turned out to be 0.83.

As to B5, the interferometry response value was found to be 2.11.
